# Measured values from patent US20250340622A1 (AstraZeneca / MedImmune, published 2025).
# Assays:
# Assay in all cases: cell-based or functional assay
# [1] = molecular target: RSV B F protein variant N208D (RSV B, strain B9320)
# [2] = molecular target: RSV B F protein variant N201T:I206M:Q209R (RSV B)
# [3] = molecular target: RSV B F protein variant K68Q:I206M:Q209R (RSV B)
# [4] = molecular target: RSV B F protein variant K68Q:S211N (RSV B)
# [5] = molecular target: RSV B F protein variant K65Q:K68N (RSV B)
# [6] = molecular target: RSV B F protein variant I206M:Q209R:S211N (RSV B)
# [7] = molecular target: RSV B F protein variant K68N (RSV B)
# [8] = molecular target: RSV B F protein variant K68N:N208S (RSV B, strain B9320)
# [9] = molecular target: RSV B F protein variant L203I (RSV B)
# [10] = molecular target: RSV B F protein variant K68N:N201S (RSV B, strain B9320)
# [11] = molecular target: RSV B F protein variant N208S (RSV B)
# [12] = molecular target: RSV B F protein variant N201S (RSV B)
# [13] = molecular target: RSV B F protein variant S211N (RSV B)
# [14] = molecular target: RSV B F protein variant I206M:Q209R (RSV B)
# [15] = molecular target: RSV B F protein variant I64T:K68E:I206M:Q209R (RSV B)
binder,measurement,setting,value
"nirsevimab (antibody, human IgG1, kappa, V domains shown) VH: QVQLVQSGAEVKKPGSSVMVSCQASGGLLEDYIINWVRQAPGQGPEWMGGIIPVLGTVHYGPKFQGRVTITADESTDTAYMELSSLRSEDTAMYYCATETALVVSETYLPHYFDNWGQGTLVTVSS VL: DIQMTQSPSSLSAAVGDRVTITCQASQDIVNYLNWYQQKPGKAPKLLIYVASNLETGVPSRFSGSGSGTDFSLTISSLQPEDVATYYCQQYDNLPLTFGGGTKVEIKR",fold reduced susceptibility to nirsevimab (recombinant RSV B variant),[1],> 90000 fold
same,fold reduced susceptibility to nirsevimab neutralization (recombinant RSV neutralization susceptibility assay),[2],> 418 fold
same,fold reduced susceptibility to nirsevimab neutralization (recombinant RSV neutralization susceptibility assay),[3],46.4 fold
same,fold reduced susceptibility to nirsevimab neutralization (recombinant RSV neutralization susceptibility assay),[4],35.7 fold
same,fold reduced susceptibility to nirsevimab neutralization (recombinant RSV neutralization susceptibility assay),[5],1240 fold
same,fold change in susceptibility to nirsevimab,[6],0.5 fold
same,fold reduced susceptibility to nirsevimab neutralization (recombinant RSV neutralization susceptibility assay),[7],29.9 fold
same,fold reduced susceptibility to nirsevimab (recombinant RSV B variant),[8],> 90000 fold
same,fold reduced susceptibility to nirsevimab neutralization (recombinant RSV neutralization susceptibility assay),[9],3000 fold
same,fold reduced susceptibility to nirsevimab (recombinant RSV B variant),[10],> 13000 fold
same,fold reduced susceptibility to nirsevimab (recombinant RSV B variant),[11],> 24000 fold
same,fold reduced susceptibility to nirsevimab neutralization (recombinant RSV neutralization susceptibility assay),[11],> 387 fold
same,fold reduced susceptibility to nirsevimab neutralization (recombinant RSV neutralization susceptibility assay),[12],127 fold
same,fold change in susceptibility to nirsevimab,[13],1.2 fold
same,fold change in susceptibility to nirsevimab,[14],0.23 fold
same,fold reduced susceptibility to nirsevimab neutralization (recombinant RSV neutralization susceptibility assay),[15],> 447 fold
